According to publication PMC12056068 (Nature Communications, 2025):

Legend:
[1] = biological target: T1, SUVH1 (Arabidopsis thaliana, UniProt Q9FF80 1-670); test: pull-down
T1 sequence (looked up): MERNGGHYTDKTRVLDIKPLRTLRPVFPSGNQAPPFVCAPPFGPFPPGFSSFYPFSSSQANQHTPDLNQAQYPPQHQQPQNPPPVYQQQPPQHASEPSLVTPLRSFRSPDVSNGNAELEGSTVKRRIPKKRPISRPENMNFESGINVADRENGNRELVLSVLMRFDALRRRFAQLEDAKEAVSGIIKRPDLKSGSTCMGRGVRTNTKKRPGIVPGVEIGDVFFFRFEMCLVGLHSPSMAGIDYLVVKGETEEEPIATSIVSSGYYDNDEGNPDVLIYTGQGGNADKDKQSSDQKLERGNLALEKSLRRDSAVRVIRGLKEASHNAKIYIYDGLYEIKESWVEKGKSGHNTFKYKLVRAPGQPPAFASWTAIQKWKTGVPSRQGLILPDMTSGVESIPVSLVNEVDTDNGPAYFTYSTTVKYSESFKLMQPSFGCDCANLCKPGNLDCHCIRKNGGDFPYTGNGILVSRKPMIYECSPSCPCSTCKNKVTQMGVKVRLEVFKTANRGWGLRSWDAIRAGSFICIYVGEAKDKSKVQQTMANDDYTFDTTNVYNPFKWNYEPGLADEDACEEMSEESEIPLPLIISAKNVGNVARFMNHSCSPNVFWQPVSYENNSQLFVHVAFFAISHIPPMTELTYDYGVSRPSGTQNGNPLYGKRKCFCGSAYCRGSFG

[2] = biological target: T2, GST-SUVH3 (Arabidopsis thaliana, UniProt Q9C5P4 1-669); test: pull-down
T2 sequence (looked up): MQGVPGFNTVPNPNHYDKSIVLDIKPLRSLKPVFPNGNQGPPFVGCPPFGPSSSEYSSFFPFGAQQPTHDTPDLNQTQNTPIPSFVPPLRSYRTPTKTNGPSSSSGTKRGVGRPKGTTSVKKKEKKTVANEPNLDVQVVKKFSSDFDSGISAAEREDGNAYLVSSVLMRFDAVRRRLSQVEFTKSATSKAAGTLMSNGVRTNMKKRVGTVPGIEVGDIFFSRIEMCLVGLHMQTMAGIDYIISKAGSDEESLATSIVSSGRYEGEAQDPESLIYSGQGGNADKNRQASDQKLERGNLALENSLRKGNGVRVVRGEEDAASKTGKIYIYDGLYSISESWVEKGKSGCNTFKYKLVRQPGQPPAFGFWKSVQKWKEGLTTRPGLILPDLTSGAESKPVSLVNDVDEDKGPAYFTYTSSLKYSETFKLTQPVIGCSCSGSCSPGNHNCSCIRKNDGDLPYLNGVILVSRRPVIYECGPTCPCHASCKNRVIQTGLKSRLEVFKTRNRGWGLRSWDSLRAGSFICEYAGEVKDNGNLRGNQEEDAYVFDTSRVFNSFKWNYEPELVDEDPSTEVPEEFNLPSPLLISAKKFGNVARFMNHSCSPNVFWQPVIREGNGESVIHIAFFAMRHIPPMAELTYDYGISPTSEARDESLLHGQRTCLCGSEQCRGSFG

binding result [1]: binds | binding result [2]: binds
B1: His-LEC2 (natural protein, Arabidopsis thaliana, UniProt Q1PFR7 1-363, looked up)
chain: MDNFLPFPSSNANSVQELSMDPNNNRSHFTTVPTYDHHQAQPHHFLPPFSYPVEQMAAVMNPQPVYLSECYPQIPVTQTGSEFGSLVGNPCLWQERGGFLDPRMTKMARINRKNAMMRSRNNSSPNSSPSELVDSKRQLMMLNLKNNVQISDKKDSYQQSTFDNKKLRVLCEKELKNSDVGSLGRIVLPKRDAEANLPKLSDKEGIVVQMRDVFSMQSWSFKYKFWSNNKSRMYVLENTGEFVKQNGAEIGDFLTIYEDESKNLYFAMNGNSGKQNEGRENESRERNHYEEAMLDYIPRDEEEASIAMLIGNLNDHYPIPNDLMDLTTDLQHHQATSSSMPPEDHAYVGSSDDQVSFNDFEWW
